Results: the nanobody polyreactivity screen of Harvey et al. (2022)

Test: yeast display, Sf9 membrane polyspecificity reagent, FACS + sequencing; frameworks hold sequencing errors
How it was run: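 In a synthetic yeast display library (Saccharomyces cerevisiae BJ5465), nanobody expression was induced with galactose for 36–48 hours. FACS gates were set low and high (top ~1%) using anti-HA fluorescence for expression and streptavidin fluorescence for binding of the Sf9 membrane reagent. Each polyreactivity label is drawn from the gate of origin.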

Sequence	polyreactivity (PSR sort gate)
QVQLVESGGGLVQAGGSLRLSCAASGRTFAPYAMGWYRQAPGKERELVAGITYRTGNTYYADSVKGRFTISRDNAKNTVYLQMNTLKPEDTGVYYCAAYSGYYRPRYNYWGQGTQVTVSS	high polyreactivity
QVQLVESGGGLVQAGGSLRLSCAASGFTFRYYAMGWYRQAPGKERELVADITWSGTRTYYADSVKGRFTISRDNAKNTVYLQMNSLKPEDTAVYYCAKVTWVRGSYYRNKSSIYDYWGQGTQVTVSS	high polyreactivity
QVQLVESGGGLVQAGGSLRLSCAASGSTFPYNAMGWYRQAPGKERELVASISRRGGSTYYADSVKGRFTISRDNAKNTVYLQMNSLKPEDTAVYYCNASGGPYRYYYWGQGTQVTVSS	low polyreactivity
QLQLVESVGGLVHAGGSLRLSCAASGSTFVLYAMGWYRQAPGKERELVATITTSGARTHYADSVKGRFTISRDNAKNTVYLQMNRLKPEDTAVYNCAAESYWTGDDYWGQGTQVTVSS	low polyreactivity
QVHLVESGGGLVQAGGSLRLSCAASGSTFRHYAMGWYRQAPGKERELVAAISSRGGRTYYADSVKGRFTISRDNAKNTGYLQMNSQKPEDTAVYYCAADRFRLYVGGWWYDYWRQGTQVTVSS	high polyreactivity
QVQLVESGGGLVQAGGRLSLSCAASGRTFYRYAMGWYRQAPGKDRELVAAISTRGGTTYYADSVKGRFTFSRDNAKNSVYLQMNSLKPEDTAVYYCAADSVYAEYDSWGQGTQVTVSS	low polyreactivity
QVQLVESGGGLVQAGGSLRLSCAASGSILQINPMGWYRPAPAKERDLVAANDWGGGDTYYADSVKGRFTIARDNAKNTVYVQMISLKTEDTAVYYCAAEGVSWYVWDFYDIYGYWGHGTQVTVSS	high polyreactivity
QVQLVESGGGLVQAGGSLRLSCAASGSIFSYYPMGWYRPAPGKERELVAAISWSGGSTYYADSVKGRFTISRDNAKNTVYLQMNSLKPEDTAVYYCAAQSWSGDSSFWRYDYWGQGTQVTVSS	low polyreactivity
QVQLVESGGGLVQAGGSLRLSCAASGYIFCKYAMGWYRQARGKERELVAGITRGGTTYYADSVKGRFTISRDNAKNTVYLQMNSLKPEVTAVYYCARDLLGVSSSRYNSWGQGTQVTVSS	high polyreactivity
QVQLVESGGGLVQAGGSLRLSCAASGSTFYDSAMGWYRQAPGKERELVAAINWSSDTTYYADSVKGRFTISRDNAKNTVYLQMNSLKPEDTAVYYCATDSAYRGYDYWGQGTQVNVSS	low polyreactivity
QVQLVESGGGLVQAGGSLRLSCAASGSTFAGNPMGWYRQATGKERELVAAIDSSTGSTYYADSVKGRFTISRDNAMNTVYLQMNSLKPEDTAVYYCNKTSFLVKLDYWGQGTQVTVSS	low polyreactivity
QVQLVESGGGLVQAGGSLRLSCAASGRIFYYNTMGWYRQAPGKERELVAAISYRGGSTYYADSVKGRFTISRDNAKNTVYLQMNSLKTEDTAVYYCAAPVRQSSYTRYDSWGQGTQVTVSS	high polyreactivity
QVQLVESGGGLVQAGGSLRISCAASGFIFFPYTRGCSRQAPGKLMELVAAITNGGSTSYADSVKGRFTISRDNAKKTGYLQMNSLKPEDTAVYSCAAVLGRNLLHTYYYWGQGTQVTGSS	low polyreactivity
QVQLVESGGGLVQAGGSLRLSCAASGSTFRTYAMGWYRQAPGKERELVAAISVSGGRTYYADSVKGRFTISRDNAKKTVYLQMNSLKPEDTAVYYCAARQYRYELEYWGQGTQVTVSS	low polyreactivity
QVQHVESGRGLVQAGGRLRLSCADSGMTFGYSAMGWYRPAPGKDRELVAAISGTAGDTYYADSVKGRFTISRDNAKNTVYLQMNSLKAEVTAVYYCAKVKRWFGVTIELDYWGQGTQGTVSS	low polyreactivity
QVQLVESAGGLVQAGGSLRLSCAASGYIFSDNTMGWYRQAPGKERELVAVITSGTSTSYADSVKGRFTISRDNAKNTVYLQMNSLKPEDSAVYYAARTGQYKTYGEYDYWGQGTQVTVSS	low polyreactivity
QVQLVESGGGLVQAGGSLRLSCAASGRTFYRNVMGWYRQEPGKEREMVASIRTSGGSTYYADSVKGRFTISRDNAKNTVYLQMNSQKPEDTAVYYCATRVFVYPYRRYSHYDYWGLGTQVTVSS	high polyreactivity
QVQLVESGGGLVQAGGSLRLSCAASGFTFYYYAMGWYRQAPGKERELVAAIDTGGSTNYADSVKGRFTISRDNAKNTVYLQMNSLKPEDTAVYYCNADTPDHYGHYDYWGQGTQVTVSS	low polyreactivity
QVQLVESGGGLVQAGGSIRLSCAASGSTFCVNAMGWDRQAPGKERELVAVITFTGSRTYYADSVKGRFTISRDNAKNTVYLQMNSLKPEDTAVYYCAADRRRVLYKFDYWGQGTQVTVSS	low polyreactivity
QVQLVESGGGLVQAGGSLRLSCAASGSIVVWNDMGWYRQAPGTEREFVAAITSRDGSTYYADSVKGRFTISRDNAKNTVYLQMNSLKPEDTAVYYCAARLRVTVFYSRTRYYWGQGTQVTVSS	low polyreactivity
QVLLVESGGGLVQAGGSLRLSGAASGRTFRRNAIGWYRQAPGKERELVAAISASGGSTYYADSVKGRFTISRDNAMNTVYLEMNSLKPEDTADYYCAAVSQTTYWGQGTQVTVSS	high polyreactivity
QVQLVESGGGLVQAGGSLRLSCAASGRTFVGYAMGWYRQAPGKERELVAAITYSGVSTYYADSVKGRFTISRDNAKNTVYLQMNSLKPEDTAVYYCAADYISVYGYEYYYWGQGTQVTVSS	high polyreactivity

Sequence	polyreactivity (PSR sort gate)
QVQLVESGGGLVQAGGSHRISCAASGRTLPSYAMGWYRQAPGKERELVAAISYSGASTYYADSVKGRFTISRDNAKNTVYLQMNSLKPQDTAVYYCAVYRTFRYRYDSWGQGTQVTVSS	high polyreactivity
QVHLVDSGGGLVQAGGSLRLSCAASGFTYYAMGWYRQAPGKERELVAAITRSGGSTYYADSVKGRFTISRDNAKNSVYLQMKSLKPEDTAVYYCAASGKALKYTARYGSWGQGTQVNVSS	high polyreactivity
QVQLVESGGGIVQAGGSLRVSCAASGTMGWYRQAPGKERELVAAISQSGGSTYYADSVKGRFTISRDNAKNTVYLQMNSLKPEDTAVYYCAVDPGYGHPRRDYWGQGTQVTVSS	low polyreactivity
QVQLVESGGGLVQAGGSLRLSCASSGFTFKFNAMGWYRPAPGKERELVAAISQSGVNTYYADSVKGRFTISRDNAKNTVFLLMNSLKPEDTAVYYCAADFSAYGYDYWGQGTQVTVSS	low polyreactivity
QVQLVESGGGLVQAGGSLSLSCAASGFIFLGNAMGWYRQAPGKEREVVAAISSGGSTYADSVKGRFTISRDHAKNTVYLQMNSLKPEDTAVYYCAVDRAFRAQNYHEYDYWGQGSQVTVSS	low polyreactivity
QVQLVESGGGLVQAGGSLRLSCDASGSTFSDYAMGWYRQAPGKERELVAAISDSGSGTYYADSVKGRFTISRDNAKNTVYLQMNSLKPEDTAVYYCNTDPRFAMDWGQGTQVTVSS	low polyreactivity
QVQLVESGGGLVQAGGSLRLSCAASGIIFYLNAMGWYRLAPGKERELVAAISSSDGTTYYADSVKGRFTISRDNAKNTVYLQMNSLKPEDTAGYYCAAGQDWGYLDYDWVSYLYDYWGQGTQVTVSS	low polyreactivity
QVQLVESGGGLVQAGGSLRLSCAASGSTFFSKAMGWSRQEPGKERELVAAISRSGATTSYADSVKGRFTISRDNAKNTVYLQMNSLKPEDTAVYYCAVGRRYYQDYDYSGQGTQVTVSS	high polyreactivity
QVQLVESGGGLVQAGGSLRLSCAASGSTIKYYAMGWYRQAPGKERELVAAINWSGDSTYYADSVKGRFTISRDNAKNTVYLQMNSLKPEDTAVYYCAVRYQKRAYYGSNYWGQGTQVTVSS	high polyreactivity
QVQLVESGGGLVQAGGSLRLSCAASGSTFQTYAMGWYRQAPGKERELVAAITSGGSTNYADSVNGRFTISRDNAKNTVYLQMNSLKPEDTAVYYCAGRQIYQTSEHRLQYDYWGQGTQVTVSS	low polyreactivity
QVQLVESGGGLVQAGGSLRLRCAAYGSNFVLNAMGLDRKAPGKERELVAAISRGGASTYYADSVKGRFTIARDNSKNTVYLQMTSLKPEDTAVYYCNASGYGQGVVIYLVLYDYWGQGTQVTVSS	low polyreactivity
QVHLVESGGGLVQAGGSLRLRCAASGGTSRSYAKGWYRPAPGKERELVAAISWRGGRTYYADSVKGRFTISRDNAKNTVYFQMNRLKPEDTAVYDCAARLPGYYGIGDYWGLGTQVTVSS	high polyreactivity
QVQLVESGGGLVQAGGSLRLSCAASGHIFFYYTMGWYRQAPGKERELVAGITIGGSTNYADSVKGRFTISRDNAKNTVYLQMNSVKPEDTAVYYCKVVKYVDIYSYWEYYYWGQGTQVTVSS	low polyreactivity
QVQLVESGGGLVQAGGSLRLTCAASGRIFGRNTMGWYRQAPGKEMELVAAISSSGGSTRYADSVKGRFTISRDNAKNTVYIQMNSLKPEDTALYYCAAVRNRHGYDYWGKGTQVTVSS	high polyreactivity
QVQLVESGGGLLQAGGSLRLSCAASGSIFGQYAMGWYIQAPGKERELVAAISTRGGSTRYADSVKGRFTISRDNAKNTVYLQMNSLKPEDTAVYYCAARVPYIRHLAVDYWGQGTQVTVSS	high polyreactivity
QVQLVESGGGLVQAGGSLRLTCAASGRIFSANAMGWYRLAPGKERELVAGIDSGGSTNYADSVKGRFTISGDNAKNTVYLQMNSLKPEDTAVYYCAKYRGRGNTYNGGYDYWGQVTQVTVSS	low polyreactivity
QVQLVESGGGLVQAGGSLRLSCAASGSIFVYNAMGWYRQAPGKERELVAAITNGGSTNYADSVKGRFTISRDNAKNTVYLQMNSLNPEDTAVYYCAARRYTSAVWWRPRHYYWGQGTQVTVSS	high polyreactivity
QGQRVESGGGLVQAGCSLRLSSAASGSTFNEYTLGWYRQAPGKERELVAAIRASDGSTFYADTVKGRFTISRDYAKNSVYFQMNSLKPEDTSVYYCPADYYWNDYWGQGTQVTVSS	low polyreactivity
QVHLLESGGALVQAGGRLRLSCAASGRIFKTYAMGWYRQAPGKELEFVAAITASGGRTYYADSVKGRFTISRDNAKNTVYLQMNSLIPEDTAGYYCNARLVYYSYEEMDYWGQGTQVTVSS	low polyreactivity
QVHLVESGGGLVQAGGSLRLSCAASGRIYAFYAMGWYRQAPGKERELVAAISSGGNTKYADSVKGRFTISRDNAKNTVYLQMNSLKPEYTAVFYCDARTPWYNKGDYWGLGTQVTVSS	low polyreactivity
QFQLVESGGGLVQAGGSLRLSCAASGFTFYYYAMGWYRQAPGKERELVAAISSSGSSTYYADSVKGRFTISRVNAKNTVYLQMNSLKREDTAVYYWNARRYEYLWGDYWGQGTQVTVSS	high polyreactivity
